Measured values from patent US20220010017A1 (Bayer, published 2022).

Target: T1, human CEACAM6 (human, UniProt P40199 35-320)
T1 sequence (looked up): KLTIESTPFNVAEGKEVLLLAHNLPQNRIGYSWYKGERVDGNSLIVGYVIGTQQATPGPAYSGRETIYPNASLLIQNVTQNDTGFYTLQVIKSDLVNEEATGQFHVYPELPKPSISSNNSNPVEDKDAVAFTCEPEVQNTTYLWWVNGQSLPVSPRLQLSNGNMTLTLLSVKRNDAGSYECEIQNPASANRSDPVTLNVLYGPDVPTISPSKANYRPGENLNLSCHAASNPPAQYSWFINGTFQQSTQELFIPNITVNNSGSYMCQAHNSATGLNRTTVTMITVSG
Experiment: cell-based or functional assay

B1: TPP-3310 (antibody, human IgG2, kappa, V domains shown)
VH: QVTLRESGPALVKPTQTLTLTCTFSGFSLSTYGIGVGWIRQPPGKALEWLAHIWWNDNKYYSTSLKTRLTISKDTSKNQVVLTMTNMDPVDTATYYCARISLPYFDYWGQGTTLTVSS
VL: DIQLTQSPSFLSASVGDRVTITCKASQNVGTAVAWYQQKPGKAPKLLIYSASNRYTGVPSRFSGSGSGTEFTLTISSLQPEDFATYYCQQYSSYPLTFGGGTKVEIKR
half-maximal effective concentration (EC50) on the activation of T cells in co-culture: ~1 µg/mL
